System: NC(=O)c1ccc[n+]([C@@H]2O[C@H](COP(=O)([O-])OP(=O)(O)OC[C@H]3O[C@@H](n4cnc5c(N)ncnc54)[C@H](O)[C@@H]3O)[C@@H](O)[C@H]2O)c1
Test: purified protein
Format: biochemical, Homo sapiens

In the case of CD38 (Homo sapiens), the Km is reported as 17 ± 6 µM.

Reference: article PMC2752052
